Legend:
[1] = test system: captor antibody against the N-terminal PTH fragment (anti-hPTH(1-34)); assay: Spiking experiments with hPTH(1-37) fragments, Nichols IRMA intact PTH test; type: binding, goat; conditions: 1000 pM hPTH(1-37) added
Description: The Nichols Intact PTH Assay (Nichols Institute, San Juan Capistrano, Calif., U.S.A) is a double binding immunoradiometry assay (IRMA) with two polyclonal goat antibodies. […] The second detection antibody, marked with ^125Iodine, recognizes an epitope in the N-terminal section of the PTH (anti-hPTH(1-34)). The sample was incubated at the same time with the antibody coated beads and the ^125Iodine marked detection antibody overnight (12±2 h) at room temperature. After the incubation, the beads were washed and the radioactivity adhering to the solid phase measured in a gamma counter (LKB1277 Gamma Master from Perkin-Elmer). The dose measurement curve (MultiCalc Software) between bound radioactivity and concentration in the sample was determined strictly in accordance with the manufacturer's instructions via a standard measured at the same time. […]
The standard sample and the plasma pools where in each case treated with three different concentrations of hPTH(1-37) fragments in five different oxidation and state forms and then the recovered PTH contents determined. […]
There were produced from each fragment solution three initial concentrations (1000 nM, 100 nM and 10 nM). A further dilution of the fragment solutions 1:100 in the standard and in the pool plasma yielded final concentrations of […] in the sample to be analyzed. […]

[2] = test system: polyclonal antibodies employed in the Nichols test; assay: Oxidation and reduction of plasma samples, measured with Nichols IRMA; parameters: species or system goat; conditions: H2O2 oxidation
Description: The Nichols Intact PTH Assay (Nichols Institute, San Juan Capistrano, Calif., U.S.A) is a double binding immunoradiometry assay (IRMA) with two polyclonal goat antibodies. The captor antibody, immobilized in plastic beads, binds only in the middle or C-terminal section of the hPTH (anti-hPTH(39-89)). The second detection antibody, marked with ^125Iodine, recognizes an epitope in the N-terminal section of the PTH (anti-hPTH(1-34)). The sample was incubated at the same time with the antibody coated beads and the ^125Iodine marked detection antibody overnight (12±2 h) at room temperature. After the incubation, the beads were washed and the radioactivity adhering to the solid phase measured in a gamma counter (LKB1277 Gamma Master from Perkin-Elmer). The dose measurement curve (MultiCalc Software) between bound radioactivity and concentration in the sample was determined strictly in accordance with the manufacturer's instructions via a standard measured at the same time. The interassay variance in the normal and increased region was less than 10% CV.
(§1) 30 plasma samples of dialysis patients and ESRD patients (ESRD=end stage renal disease) were selected at random and oxidized with hydrogen peroxide (30%; end concentration: 1.5 Mol/L) or reduced with sodium boron hydride (NaBH4, aqueous solution of 100 nMol/L). All samples, treated and untreated, where measured at the same time with the Roche Elecsys™2010 and the Nichols IRMA test.
(§2) The oxidation was effected with 30% hydrogen peroxide solution. The hydrogen peroxide concentration in the incubation preparation was at 17% of the 30% solution. All samples were incubated for 45 minutes at 37° C., then also cooled down to −70° C., lyophilized and stored at −20° C. until the quantitative PTH determination.
Of 20 samples an aliquot of each in the ratio 1:1 (v/v) was treated and reduced with a 100 nMol NaBH4 solution. Further, of 10 oxidized samples in each case an aliquot was reverse reduced by the addition of a 100 nMol NaBH4 solution in the ratio 1:1. […]

[3] = test system: captor antibody used in the Roche Elecsys 2010 PTH test; assay: Oxidation and reduction of plasma samples, measured with Roche Elecsys 2010 PTH test
Description: The Roche Elecsys™ PTH assay is an electrochemiluminescence immunoassay (ECLIA) on the fully automatic immunoanalyzer Elecsys ^R2010. The epitope recognized by the biotinylated captor antibody contains the PTH amino acids 26 to 32 and the monoclonal ruthenium detection antibody recognizes, in accordance with the information from the manufacturer, an epitope in the region of the PTH amino acids 55 to 64. Sample and antibodies were incubated together for 9 minutes at 37° C., Streptavidin coated paramagnetic beads introduced to the incubation mixture, and finally incubated for further 9 minutes. After magnetic separation of the bonded conjugates from the free conjugates on an electrode surface the luminescence was determined and the end PTH concentration determined via a recalibrated master curve. The interassay variance in the lower and upper normal region was less than 7% CV and in the high concentration region 5% CV.
as §1, §2
Of 20 samples an aliquot of each in the ratio 1:1 (v/v) was treated and reduced with a 100 nMol NaBH4 solution. Further, of 10 oxidized samples in each case an aliquot was reverse reduced by the addition of a 100 nMol NaBH4 solution in the ratio 1:1. The samples were incubated for 45 minutes at room temperature and the reaction stopped on dry ice. After the lyophilization the samples were deep frozen at −20° C. until determination. The diagrams of FIGS. 5 to 11 show the results.

[4] = H2O2 oxidation, individual samples

Molecule | signal reduction to % of the native measured sample [1] | concentration after oxidation, average, of the initial value [2] | highest remaining concentration after oxidation, % of initial value (smallest reduction) ([2]; individual samples) | lowest remaining concentration after oxidation, % of initial value (largest reduction) ([2]; individual samples) | measurement value after oxidation, average, of the initial value ([3]; H2O2 oxidation, 45 minutes at 37° C., plasma of dialysis and ESRD patients) | highest remaining measurement signal after oxidation, % of initial value [3, 4] | lowest remaining measurement signal after oxidation, % of initial value [3, 4] | measurement value after oxidation and reverse reduction, of the initial value ([3]; H2O2 then NaBH4)
hPTH(1-37): native hPTH(1-37) fragment of human parathyroid hormone, from IPF or Immundiagnostik AG (SVSEIQLMHNLGKHLNSMERVEWLRKKLQDVHNFVAL; Parathyroid hormone; UniProt P01270 32-68, looked up, fragment) | 50% | – | – | – | – | – | – | –
PTH: parathyroid hormone, single polypeptide chain of 84 amino acids, endogenous in plasma samples of dialysis patients (protein, UniProt P01270 32-115, looked up, Parathyroid hormone, parathyroid hormone, single polypeptide chain of 84 amino acids, endogenous in plasma samples of dialysis patients) Parathyroid hormone: SVSEIQLMHNLGKHLNSMERVEWLRKKLQDVHNFVALGAPLAPRDAGSQRPRKKEDNVLVESHEKSLGEADKADVNVLTKAKSQ | – | 76% | 98% | 33% | 29% | 53% | 10% | ca. 50%

— US7790398B2, “Method for determining effective parathormone activity in a sample” (priority 2001, dated 2010)
